Reference: US20050124794A1 (published 2005)
Ends that are not written are not given here. * marks the point of attachment. Fmoc = O=C(OCC1c2ccccc2-c2ccccc21)*

B1: Recombinant HKa domain 5 (HKa D5) (ligand)
chain: VSPPHTSMAPAQDEERDSGKEQGHTRRHDWGHEKQRKHNLGHGHKHERDQGHGHQRGHGLGHGHEQQHGLGHGHKFKLDDDLEHQGGHVLDHGHKHKHGHGHGKHKNKGKKNGKHNGWKTEHLAS
notes: also called HK-D5; D5 domain of HKa

Assays:
[1] = target: T1, Chicken gizzard tropomyosin (Tpm), purified (chicken); test: displacement of 10 nM biotin-HKa from immobilized chicken gizzard Tpm, 10 µM ZnCl2
T1 construct: Bought from Sigma and coated on 96-well plates; also called purified Tpm; immobilized Tpm
T1 sequence (chain, as listed by the source limits assumed): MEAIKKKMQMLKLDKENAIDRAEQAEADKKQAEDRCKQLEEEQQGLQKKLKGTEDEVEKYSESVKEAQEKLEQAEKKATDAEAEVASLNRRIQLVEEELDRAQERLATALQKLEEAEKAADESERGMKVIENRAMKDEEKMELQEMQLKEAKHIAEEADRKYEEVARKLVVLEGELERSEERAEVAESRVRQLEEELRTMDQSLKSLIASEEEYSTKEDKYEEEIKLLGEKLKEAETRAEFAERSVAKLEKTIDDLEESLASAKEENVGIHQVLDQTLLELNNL
Description: The IC₅₀ for the displacement of biotinylated-HKa for the peptides shown in Table 5 was determined as follows: 10 nM biotin-HKa is added to a 96 well plate previously coated with 200 ng of chicken gizzard Tpm in the presence of 10 μM ZnCl₂. Increasing amounts of the peptides are added to the wells. The remaining biotin-HKa bound to Tpm was detected using avidin-HRP and a chromogenic substrate. A Kd was determined by non-linear regression analysis of the empirical data. The effect on the Matrigel Plug assay was determined as follows: Matrigel (0.5 mL) containing 400 ng/ml of bFGF, 50 μg/ml heparin with or without the peptide (300 μM) or saline buffer are injected in the flanks of a mouse. After five days, the plugs are removed and the plugs scanned.

[2] = target: B1; test: chymotryptic digest of chicken gizzard Tpm on HK-D5-Sepharose in TBS with 10 uM ZnCl2, elution with 2 M NaCl, SDS-PAGE
Description: Chicken gizzard Tpm (0.4 mg/ml) was incubated with 5 μg/ml chymotrypsin in TBS pH 7.5 at 37° C. and aliquots were taken at the indicated times. SDS-PAGE sample buffer was added and the sample heated at 80° C. for 4 minutes and then loaded onto and run on a 10% NuPage gel (Invitrogen).
Chicken gizzard Tpm was partially digested with Chymotrypsin as described for FIG. 19 for 100 minutes so that a 20 kDa fragment was enriched. HK-D5 had previously immobilized in an activated Sepharose (CNBr-activated Sepharose 4 B, Amersham Biosciences). The chymotryptic fragments were incubated with the HK-D5-Sepharose resin in TBS containing 10 μM ZnCl₂, washed extensively in the same buffer and eluted in 2 M NaCl. The samples were run in a 10% NuPage gel (Invitrogen).

[3] = target: T1, Chicken gizzard tropomyosin (Tpm), …; test: displacement of 10 nM biotin-HKa from immobilized chicken gizzard Tpm, 10 µM ZnCl2; remark: listed apart in the source
Description: The N-terminus of the pentapeptide HHPHG has been derivatized (capped) in an attempt to increase the pentapeptides' affinity to Tpm by increasing productive molecular contacts (or interactions). […] The IC₅₀ for the displacement of biotinylated-HKa for the capped peptides shown in the table was determined as follows: 10 nM biotin-HKa was added to a 96 well plate previously coated with 200 ng of chicken gizzard Tpm in the presence of 10 μM ZnCl₂. Increasing amounts of the peptides were added to the wells. The remaining biotin-HKa bound to Tpm was detected using avidin-HRP and a chromogenic substrate. A Kd was determined by non-linear regression analysis of the empirical data

[4] = target: T1, Chicken gizzard tropomyosin (Tpm), …; test: binding to Tpm in vitro; assay not detailed
[5] = target: T1, Chicken gizzard tropomyosin (Tpm), …; test: competition with 10 nM biotin-HKa on plate coated with 200 ng chicken gizzard Tpm, 10 µM ZnCl2
Description: 10 nM biotin-HKa was added to a 96 well plate previously coated with 200 ng of chicken gizzard Tpm in the presence of 10 μM ZnCl₂. Increasing amounts of HK-D5, HPRG-H/P domain or endostatin were added to the wells. Bound biotin-HKa was detected and Kd was calculated as for FIG. 10.
Binding to immobilized Tpm is carried out either by a competition assay with a known ligand, biotin-HKa, or by direct binding of the corresponding biotinylated protein. Plates are coated at room temperature with chicken gizzard Tpm (Sigma) in Tris buffer-saline (TBS) (200 ng/well). After incubation for 2 hours, wells are washed with TBS, then 1% BSA/TBS/Tween-20 is added to each well and incubate at 37° C. for two hours. HKa (Enzyme Laboratories) that had been previously biotinylated with EZ-Link (Pierce) according to the manufacturers instructions, is added to the plate at a concentration of 10 nM together with ZnCl₂ (10 μM) and the appropriate concentration of the protein, domain or peptide competitor. The plates are incubated at room temperature and then washed with TBS/Tween-20. Avidin-HRP is added, incubated for 20 minutes at room temperature, washed with TBS/Tween-20 and the chromogenic substrate is added. The reaction is stopped with sulfuric acid and the plate read at 490 nm.

[6] = target: T1, Chicken gizzard tropomyosin (Tpm), …; test: inhibition of binding of 20 nM biotin-HKa to purified immobilized chicken gizzard Tpm; competition against 20 nM biotin-HKa
Description: FIGS. 7A-7C show specific binding of HKa to purified immobilized Tpm and its inhibition. […] Plates were incubated with increasing concentrations of biotin-HKa in the absence or presence of 10 μM Zn²⁺. […] The IC₅₀ for this inhibition was about 8.1 nM.

[7] = target: T1, Chicken gizzard tropomyosin (Tpm), …; test: competition ELISA against 10 nM biotin-HKa on immobilized chicken gizzard Tpm, 10 uM ZnCl2

Binder | IC50 [1] [µM] | IC50 [3] [µM] | further results
HKNKGKKN [ATN16] | 99.5 |  | 
Antiangiogenic Ligand-Binding Polypeptide (AALBP), chymotryptic fragment of chicken gizzard Tpm cTPM1 (other) not shown |  |  | binding result [2]: binds
{4‑Chlorobenzyl}-HHPHG [ATN-276.000.01 (4-Chlorobenzyl N-capped HHPHG)] |  | 23 | 
TRRHDWGH [ATN232] | 140 |  | 
HHPHG (Synthetic pentapeptide; also called HHPHG) [ATN230] | 121 |  | 
AHPHG [AHPHG (Ala substituted mutant of HHPHG)] |  |  | binding result [4]: no binding
HPPHG (also called HPPHG) [ATN228] | 150 |  | 
{3‑(1-adamantyl)propanoyl}-HHPHG [ATN-281.000.01 (3-(1-adamantyl)propanoyl N-capped HHPHG)] |  | 59 | 
HHPHG (not fully specified (N-terminus)) [ATN-275.000.01 ((1S)-(+)-camphorsulphonyl N-capped HHPHG)] |  | 30 | 
Fmoc-HHPHG (The text says the N-terminus of the pentapeptide HHPHG was capped) [ATN-278.000.01 (Fmoc N-capped HHPHG)] |  | 55 | 
Histidine-Proline rich (H/P) domain of HPRG (ligand, also called HPRG-H/P; HPRG-H/P domain) SVNIIHRPPPHGHHPHGPPPHGHHPHGPPPHGHPPHGPPPRHPPHGPPPHGHPPHGPPPHGHPPHGPPPHGHPPHGPPPHGHPPHGHGFHDHGPCDPPSHK |  |  | fold higher affinity than endostatin [5]: ~1000 fold
B1 |  |  | IC50 [6]: ~8.1 nM; IC50 (read off the curve) [7]: ~2 nM; fold higher affinity than endostatin [5]: ~1000 fold
